In the supplement of paper PMC10567573:

B1: FBF1 (parent)
chain: LQRASILDMRRDHEEQLQRLKLLK
B2: RHOBTB3 (parent)
chain: STTEGIQLAKELGATYLELHSLDD

Variants of: B1
Experiment: protein stability index of a GFP-peptide fusion (GPS, HEK-293T) (PSI 1-6); higher = more stable
Settings: c terminus: a fixed tail appended
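Also: lentivirally expressed fusions sorted by FACS into six bins by GFP to DsRed ratio, PSI derived from sequencing read proportions per bin multiplied by bin number.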

Variant | protein stability index
L23S | 4.42
L23F | 3.88
L23T | 4.03
L23A | 4.14
L23E | 4.8
L23K | 4.22
L23Q | 4.15
L23H | 4.26
L23C | 4.09
L23M | 4.21
L23D | 4.62
L23W | 3
L23I | 3.88
L23V | 3.69
L23N | 4.54
L23Y | 3.12
L23G | 3.94
L23R | 3.94
L23P | 3.89
L20W | 2.78
L20E | 4.49
L20F | 3.06
L20H | 3.96
L20K | 4.1
L20N | 4.22

Variant | protein stability index
L20V | 3.79
L20A | 3.79
L20M | 4
L20D | 4.45
L20C | 4.17
L20R | 4.13
L20G | 4.34
L20P | 4.21
L20T | 4.09
L20Y | 3.83
L20I | 3.3
L20S | 4.11
L20Q | 4.33
Q16S | 3.43
Q16Y | 2.75
Q16K | 3.61
Q16E | 3.64
Q16P | 3.51
Q16D | 4.02
Q16W | 2.97
Q16R | 2.77
Q16L | 2.73
Q16A | 3.18
Q16M | 1.38
Q16I | 2.28

Variant | protein stability index
Q16V | 3.04
Q16G | 4.09
Q16H | 2.64
Q16T | 3.45
Q16N | 3.48
Q16C | 3.09
Q16F | 1.73
H13A | 3.89
H13T | 3.27
H13D | 3.69
H13C | 2.2
H13Q | 3.4
H13I | 2.54
H13V | 2.46
H13M | 3.13
H13G | 3.25
H13Y | 2.83
H13F | 3.17
H13P | 3.33
H13S | 3.84
H13L | 2.36
H13K | 2.68
H13R | 3.19
H13W | 2.38
H13N | 3.95

Variant | protein stability index
H13E | 4.15
D12W | 2.34
D12V | 2.94
D12K | 3.15
D12T | 3.69
D12A | 3.41
D12M | 2.81
D12E | 3.93
D12C | 2.51
D12S | 3.31
D12H | 3.3
D12F | 2.74
D12I | 3.2
D12Y | 3.37
D12G | 3.21
D12L | 2.8
D12P | 3.38
D12N | 3.78
D12R | 3.05
D12Q | 3.71
L17T | 4.19
L17V | 3.87
L17H | 4
L17P | 4.63
L17C | 3.55

Variant | protein stability index
L17K | 4.05
L17Y | 3.55
L17D | 4.23
L17W | 2.96
L17G | 4.03
L17R | 3.54
L17I | 3.91
L17F | 3.17
L17Q | 4.52
L17S | 3.77
L17A | 3.9
L17M | 3.72
L17N | 3.91
L17E | 4.07
R19S | 3.48
R19N | 3.89
R19K | 3.14
R19Y | 2.72
R19G | 3.75
R19F | 1.69
R19E | 4.25
R19D | 4.26
R19Q | 3.33
R19P | 3.75
R19T | 2.85

Variant | protein stability index
R19M | 3.03
R19V | 2.48
R19C | 2.65
R19H | 2.78
R19I | 2.11
R19A | 3.48
R19L | 2.22
R19W | 2.25
Q18I | 2.47
Q18Y | 2.78
Q18E | 3.3
Q18F | 2.19
Q18M | 2.86
Q18D | 3.58
Q18W | 2.45
Q18P | 3.26
Q18K | 3.51
Q18S | 3.19
Q18C | 3.1
Q18A | 3.7
Q18R | 3.37
Q18T | 3.36
Q18H | 3.02
Q18N | 3.6
Q18L | 2.92

Variant | protein stability index
Q18G | 3.79
Q18V | 3.11
E15V | 3.13
E15Y | 2.84
E15W | 2.29
E15G | 3.56
E15H | 3.09
E15D | 3.34
E15L | 2.56
E15R | 3.22
E15M | 3.12
E15F | 2.68
E15A | 3.4
E15S | 2.96
E15C | 2.5
E15Q | 3.18
E15K | 3.04
E15P | 3.22
E15I | 2.37
E15N | 2.91
E15T | 3.39
R11V | 3.18
R11Y | 2.68
R11W | 2.64
K21N | 3.57

Variant | protein stability index
K21E | 4.02
K21R | 3.28
K21T | 3.38
K21M | 3.55
K21Y | 2.98
K21W | 2.85
K21I | 2.96
K21P | 4.75
K21H | 3.29
K21V | 3.07
K21L | 3.01
K21S | 3.21
K21C | 2.65
K21A | 3.59
K21Q | 3.18
K21G | 3.49
K21F | 2.85
K21D | 3.88
K24G | 3.2
K24H | 3.44
K24S | 2.82
K24V | 1.92
K24D | 4.12
K24P | 3.55
K24T | 2.87

Variant | protein stability index
K24N | 3.55
K24A | 2.19
K24W | 2.1
K24I | 2.28
K24C | 1.98
K24Y | 2.81
K24M | 4.03
K24L | 1.87
K24F | 2.65
K24R | 3.3
K24E | 3.52
K24Q | 2.68
L22R | 3.74
L22I | 3.77
L22A | 3.18
L22T | 4.35
L22P | 4.24
L22K | 3.74
L22D | 3.63
L22V | 3.92
L22Y | 3.15
L22C | 3.94
L22Q | 4.27
L22W | 3.27
L22G | 3.44

Variant | protein stability index
L22E | 4.33
L22M | 3.44
L22F | 3.5
L22S | 4.21
L22N | 4.4
L22H | 4.1
E14S | 2.95
E14F | 2.38
E14G | 3.12
E14H | 3.13
E14T | 2.96
E14C | 2.79
E14Y | 3.04
E14P | 2.82
E14A | 3.32
E14K | 3.43
E14V | 2.69
E14W | 2.69
E14Q | 3.49
E14N | 2.86
E14R | 2.98
E14M | 2.56
E14D | 3.6
E14I | 3.08
E14L | 3.17

Variants of: B2
Experiment: as above
Settings: c terminus: a fixed tail appended

Variant | protein stability index
S21G | 4
S21K | 3.02
S21N | 4
S21E | 3.93
S21F | 1.64
G13E | 2.73
G13V | 2.52
L12H | 4.78
L12K | 5.07
L12S | 4.92
L12I | 3.92
L12N | 4.77
L17C | 4.14
L17K | 4.83
L17Y | 4.12
L17M | 4.11
Y16P | 5.66
Y16I | 3.47
Y16L | 2.91
Y16E | 4.35
Y16F | 3.27

Variant | protein stability index
Y16S | 4.84
I6C | 5.12
I6W | 2.7
Q7F | 3.37
Q7P | 3.65
Q7S | 4.24
E11H | 4.34
E11Q | 3.89
E11D | 4.01
E11L | 2.19
E11T | 3.61
E11N | 3.84
T15P | 3.37
T15K | 4.33
D23R | 2.81
D23P | 3.66
L8P | 4.92
L8K | 4.78
L8D | 5.04
L8Q | 5.2
L8H | 4.53

Variant | protein stability index
L8N | 4.57
L8T | 4.97
E4G | 3.98
E4A | 3.66
E4W | 2.58
E4P | 3.65
E4F | 2.29
E4I | 2.35
T3S | 4.02
T3K | 3.42
T2P | 4.02
T2C | 3.31
S1L | 2.26
S1E | 4.26
S1G | 3.69
S1K | 4.39
H20L | 1.41
H20N | 4.46
H20K | 2.42
H20F | 2.75
H20T | 3.15

Variant | protein stability index
L19T | 4.96
L19S | 5.01
L19I | 2.38
D24K | 3.02
D24N | 2.16
D24P | 3.16
D24G | 1.94
E18G | 3.72
A14M | 3.58
A14I | 3.31
L22E | 5.93
L22D | 4.96
L22A | 4.99
L22S | 4.47
A9M | 1.74
G5W | 1.56
G5R | 3.89
G5N | 4.27
G5E | 3.31
K10F | 1.38
K10S | 3.13
